Experimental data taken from FireProtDB (doi:10.1038/s41598-020-57873-3).

B1: N142P|I144P|N377P|T404P, Q8GB52 (parent)
chain: MLKKVLSCCIAATFGIYSASSLAQSSVINSTENSQQPIAPLVLASSDDAITDRYIVVLKQPQMLMNDAAGLQQFTQQTVGLMANSFSIKTDDVFDSSIIGFVANLDALQLKQLRRDSRVEYIEQDQILSIDPVVSNEAVQSNAIWGLDRIDQRNLPLDRNYNANFDGFGVTAYVIDTGVNNNHEEFGGRSVSGYDFVDNDADSSDCNGHGTHVAGTIGGSQYGVAKNVNIVGVRVLSCSGSGTTSGVISGVDWVAQNASGPSVANMSLGGGQSTALDSAVQGAIQSGVSFMLAAGNSNADACNTSPARVPSGVTVGSTTSSDSRSSFSNWGSCVDLFAPGSQIKSAWYDGGYKTISGTSMATPHVAGVAALYLQENNGLTPLQLTGLLNSRASENKVSDTRGTTNKLLYSLADSGCEPDCGGPTPGPDPDGKLVSGVPVNGLSGSRGQKDYFYMDLQQGQQLTVVTIGGTGDADLYLRFGDKPTLNTWDCRPYRSGNSETCTVNVTQSGRYHVMLNAYSAYSGLTLQANF

Variants of: B1
Details: Vibrio sp. PA-44, pH 8.6, Thermal, structure 1SH7, whole UniProt chain shown
[1] = CD, Glycine 25 mM, NaCl and CaCl2 100 mM and 15 mM
[2] = CD, glycine, Nacl / Cacl2 100000 / 15000, transition: 2, reversible: no
[3] = DSC, Glycine 25 mM, NaCl and CaCl2 100 mM and 15 mM
[4] = DSC, glycine, Nacl / Cacl2 100000 / 15000, transition: 2, reversible: no

Variant	Tm [1] [°C]	change of melting temperature, mutant - wild type (higher = more stable) [1] [°C]	Tm [2] [°C]	change of melting temperature, mutant - wild type (higher = more stable) [2] [°C]	Tm [3] [°C]	change of melting temperature, mutant - wild type (higher = more stable) [3] [°C]	unfolding enthalpy (calorimetric) [3] [kcal/mol]	Tm [4] [°C]	change of melting temperature, mutant - wild type (higher = more stable) [4] [°C]	unfolding enthalpy (calorimetric) [4] [kcal/mol]
N142P I144P N377P T404P	72.1	10.2	72.1	10.2	77.2	13.3	164	77.2	13.3	163
I144P	65.1	3.2	65.1	3.2	65.7	1.8	137	65.7	1.8	136
T404P	61.6	-0.3	–	–	64.5	0.6	108	64.5	0.6	108
N377P	–	–	60.7	-1.2	63.6	-0.3	133	63.6	-0.3	133
N142P I144P T404P	69.2	7.3	69.2	7.3	73.6	9.7	167	73.6	9.7	166
